Target: egln1_human EGLN1 (UniProt Q9GZT9)
Sequence (Q9GZT9 whole entry, looked up): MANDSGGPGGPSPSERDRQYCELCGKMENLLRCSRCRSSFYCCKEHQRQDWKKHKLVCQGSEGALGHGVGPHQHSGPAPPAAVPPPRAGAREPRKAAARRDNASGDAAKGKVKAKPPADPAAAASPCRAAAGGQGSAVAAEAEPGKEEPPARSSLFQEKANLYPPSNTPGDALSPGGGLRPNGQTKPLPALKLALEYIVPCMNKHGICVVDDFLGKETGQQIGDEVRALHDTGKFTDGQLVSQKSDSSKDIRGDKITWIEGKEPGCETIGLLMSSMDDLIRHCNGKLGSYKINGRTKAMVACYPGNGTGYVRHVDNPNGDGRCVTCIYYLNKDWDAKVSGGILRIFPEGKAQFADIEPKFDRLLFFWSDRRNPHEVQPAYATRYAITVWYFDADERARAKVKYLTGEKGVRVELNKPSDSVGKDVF

Sequence of Endothelial PAS domain-containing protein 1 (Homo sapiens), Q99814 N203H (Q99814 whole entry N203H, the tested form may be a part): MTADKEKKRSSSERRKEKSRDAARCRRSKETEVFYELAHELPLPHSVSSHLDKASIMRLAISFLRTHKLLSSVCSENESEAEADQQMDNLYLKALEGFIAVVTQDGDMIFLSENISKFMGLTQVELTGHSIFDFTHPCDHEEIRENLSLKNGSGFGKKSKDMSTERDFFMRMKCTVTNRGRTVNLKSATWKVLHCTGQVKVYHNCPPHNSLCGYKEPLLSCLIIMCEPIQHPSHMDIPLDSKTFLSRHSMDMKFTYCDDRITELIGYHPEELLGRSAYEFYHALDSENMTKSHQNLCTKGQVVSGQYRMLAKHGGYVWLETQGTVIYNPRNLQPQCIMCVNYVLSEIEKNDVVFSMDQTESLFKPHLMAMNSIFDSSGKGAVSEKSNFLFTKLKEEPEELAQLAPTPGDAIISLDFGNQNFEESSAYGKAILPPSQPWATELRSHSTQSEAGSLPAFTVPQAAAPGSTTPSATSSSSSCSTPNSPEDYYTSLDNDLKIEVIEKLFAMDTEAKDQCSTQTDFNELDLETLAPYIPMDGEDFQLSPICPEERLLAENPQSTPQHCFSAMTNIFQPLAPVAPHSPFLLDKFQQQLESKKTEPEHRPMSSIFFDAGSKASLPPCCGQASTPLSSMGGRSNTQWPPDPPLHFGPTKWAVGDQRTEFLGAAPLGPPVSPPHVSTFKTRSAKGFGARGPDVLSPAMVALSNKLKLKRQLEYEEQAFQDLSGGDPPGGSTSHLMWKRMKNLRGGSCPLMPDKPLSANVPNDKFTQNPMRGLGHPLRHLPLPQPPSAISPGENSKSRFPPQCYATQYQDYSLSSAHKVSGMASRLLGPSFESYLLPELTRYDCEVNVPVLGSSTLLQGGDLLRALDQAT
Sequence of Endothelial PAS domain-containing protein 1 (Homo sapiens), Q99814 G724W (Q99814 whole entry G724W, the tested form may be a part): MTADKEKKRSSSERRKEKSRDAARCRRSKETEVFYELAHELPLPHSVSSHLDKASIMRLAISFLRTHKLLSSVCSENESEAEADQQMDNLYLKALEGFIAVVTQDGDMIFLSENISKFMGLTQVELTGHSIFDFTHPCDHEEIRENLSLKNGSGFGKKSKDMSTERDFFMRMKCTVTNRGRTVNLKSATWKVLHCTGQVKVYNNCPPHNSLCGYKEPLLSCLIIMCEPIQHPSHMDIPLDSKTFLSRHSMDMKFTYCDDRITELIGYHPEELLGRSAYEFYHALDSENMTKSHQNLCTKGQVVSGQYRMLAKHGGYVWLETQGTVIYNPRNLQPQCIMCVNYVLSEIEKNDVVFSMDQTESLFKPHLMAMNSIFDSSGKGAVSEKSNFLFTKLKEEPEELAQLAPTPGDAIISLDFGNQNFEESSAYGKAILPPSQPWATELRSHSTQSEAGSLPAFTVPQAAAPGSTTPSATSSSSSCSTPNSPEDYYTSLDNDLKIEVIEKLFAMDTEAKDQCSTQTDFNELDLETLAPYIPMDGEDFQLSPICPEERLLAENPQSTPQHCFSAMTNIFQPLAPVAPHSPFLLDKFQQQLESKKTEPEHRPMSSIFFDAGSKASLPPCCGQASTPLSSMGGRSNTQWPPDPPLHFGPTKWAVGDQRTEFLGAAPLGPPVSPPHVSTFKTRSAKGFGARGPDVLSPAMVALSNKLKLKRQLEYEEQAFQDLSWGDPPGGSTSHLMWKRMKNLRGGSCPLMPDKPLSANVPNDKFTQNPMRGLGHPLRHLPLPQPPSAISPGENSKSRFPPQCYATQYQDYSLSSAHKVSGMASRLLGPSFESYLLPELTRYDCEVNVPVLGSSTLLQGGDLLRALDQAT

| effect of a mutation on the interaction | Substance |
| --- | --- |
| with no effect | Endothelial PAS domain-containing protein 1 (Homo sapiens), Q99814 G724W |
| increasing interaction strength | Endothelial PAS domain-containing protein 1 (Homo sapiens), Q99814 N203H |

Reference: IntAct's records for PubMed 30487161
